Data published in publication PMC8797470, “Disruption of the pentraxin 3/CD44 interaction as an efficient therapy for triple‐negative breast cancers” (Clinical and Translational Medicine, 2022).

Columns and labels:
CD44 = target: T1, CD44 (Homo sapiens, UniProt P16070); assay: Ligand binding ELISA on immobilised CD44; conditions: HRP-conjugated recombinant proteins; wells coated with 10 μg/ml CD44; 2 h; OD 450 nm
T1 construct: purchased Sino Biological Inc. 12211-H08H
Experimental: Plate wells (9018; Corning Costar) were coated with 10 μg/ml of CD44 (12211‐H08H; Sino Biological Inc.) in PBS (pH 7.2) and then blocking for 1 h with the blocking buffer including 3% milk in PBS. For the stability binding experiments, the PTX3‐devired biotinylated peptides were pre‐incubated in serum for 1, 2, 4 or 6 h. For the binding experiments, the horseradish peroxidase (HRP)‐conjugated recombinant PTX3, PTX3/N, PTX3/C and PTX3NA or PTX3‐devired biotinylated peptides AD9, GR9, P2rdAD9 and P12rdGR9 (32310; LEADGENE) was responded in the well for 2 h. For the peptide of competition experiments, the PTX3‐devired biotinylated peptides RI37 and GI40 were diluted at the indicated concentration in PBS. After 2 h, PBS washed three times and then incubated with 5 μg/ml HRP‐conjugated PTX3 in PBS for 1 h at room temperature (RT). For the antibody competition experiments, Ab‐10 and Ab‐49 were incubated with 5 μg/ml HRP‐conjugated PTX3 in PBS for 2 h at RT. After incubation, the mixtures was responded in the well for 1 h at RT and then PBS washed three times, tetramethyl benzidine (TMB) was used to detect the bound HRP conjugate. After 15 min, the peroxidase reaction was stopped by adding 0.1 M H2SO4. Next, ELISA plate reader was used to detect the optical densities at 450 nm.

MDA-MB-231 cells = assay: Transwell migration and Matrigel invasion assays; format: cell-based, human; conditions: treatment in lower well, 18 h
From the text: In migration assay, MDA‐MB‐231 cells seeded in 8.0 μm pore polycarbonate membrane inserts (BD Biosciences) in 24‐well plates. In Matrigel invasion assay, inserts were pre‐coated with an appropriate amount of Matrigel first, and the same number of cells seeded on the Matrigel. After cells adhered on the inserts, serum‐free DMEM medium added in the upper wells. Serum‐free medium containing the treatments of TGF‐β1, PTX3, PTX3NA, PTX3/N, PTX3/C, RI37, GI40, AD9, GR9, IgG1κ, PTX3 Ab‐10 or PTX3 Ab‐49 were then mixed into the lower wells of the 24‐well plates. After incubating for 18 h, cells outside the insert were removed by wiping. The inside the inserts were then stained by 4′,6‐diamidino‐2‐phenylindol (DAPI). Fluorescence microscope was used for counting the total number of migrated cells with 200× magnification. Different from the experimental design for the MDA‐MB‐231 cells, the migrated 4T1‐Luc2 cells in the inside of the insert were detected by luciferase activity.

T1 sequence (P16070 21-220 limits assumed): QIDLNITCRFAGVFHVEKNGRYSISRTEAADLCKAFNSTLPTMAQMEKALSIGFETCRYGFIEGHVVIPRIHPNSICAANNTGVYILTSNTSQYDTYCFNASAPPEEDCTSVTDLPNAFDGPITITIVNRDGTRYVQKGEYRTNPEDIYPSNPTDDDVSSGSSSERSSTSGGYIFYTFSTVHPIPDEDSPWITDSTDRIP

B1: PTX3/C: recombinant truncated mutant, C‐terminus of PTX3, amino acids 180–381 (protein)
chain: ETAILFPMRSKKIFGSVHPVRPMRLESFSACIWVKATDVLNKTILFSYGTKRNPYEIQLYLSYQSIVFVVGGEENKLVAEAMVSLGRWTHLCGTWNSEEGLTSLWVNGELAATTVEMATGHIVPEGGILQIGQEKNGCCVGGGFDETLAFSGRLTGFNIWDSVLSNEEIRETGGAESCHIRGNIVGWGVTEIQPHGGAQYVS
modifications: left off: HRP conjugate, end not stated, kept
B1 was tested, and the “binding to immobilised CD44” value (CD44) was “could bind” and the “migration and invasion, protein alone” value (MDA-MB-231 cells) was “mimics PTX3 to induce”.
